“Also recorded” adds a separate entry of the source. Where no end group is shown, it is not given here.
Molecular target: T1, GUCY2C receptor (Mus musculus, UniProt Q3UWA6)
T1 construct: from tissue; host or cells: adult mouse brain (substantia nigra mDA neurons), in vivo after tail vein injection
T1 sequence (Q3UWA6 20-1072): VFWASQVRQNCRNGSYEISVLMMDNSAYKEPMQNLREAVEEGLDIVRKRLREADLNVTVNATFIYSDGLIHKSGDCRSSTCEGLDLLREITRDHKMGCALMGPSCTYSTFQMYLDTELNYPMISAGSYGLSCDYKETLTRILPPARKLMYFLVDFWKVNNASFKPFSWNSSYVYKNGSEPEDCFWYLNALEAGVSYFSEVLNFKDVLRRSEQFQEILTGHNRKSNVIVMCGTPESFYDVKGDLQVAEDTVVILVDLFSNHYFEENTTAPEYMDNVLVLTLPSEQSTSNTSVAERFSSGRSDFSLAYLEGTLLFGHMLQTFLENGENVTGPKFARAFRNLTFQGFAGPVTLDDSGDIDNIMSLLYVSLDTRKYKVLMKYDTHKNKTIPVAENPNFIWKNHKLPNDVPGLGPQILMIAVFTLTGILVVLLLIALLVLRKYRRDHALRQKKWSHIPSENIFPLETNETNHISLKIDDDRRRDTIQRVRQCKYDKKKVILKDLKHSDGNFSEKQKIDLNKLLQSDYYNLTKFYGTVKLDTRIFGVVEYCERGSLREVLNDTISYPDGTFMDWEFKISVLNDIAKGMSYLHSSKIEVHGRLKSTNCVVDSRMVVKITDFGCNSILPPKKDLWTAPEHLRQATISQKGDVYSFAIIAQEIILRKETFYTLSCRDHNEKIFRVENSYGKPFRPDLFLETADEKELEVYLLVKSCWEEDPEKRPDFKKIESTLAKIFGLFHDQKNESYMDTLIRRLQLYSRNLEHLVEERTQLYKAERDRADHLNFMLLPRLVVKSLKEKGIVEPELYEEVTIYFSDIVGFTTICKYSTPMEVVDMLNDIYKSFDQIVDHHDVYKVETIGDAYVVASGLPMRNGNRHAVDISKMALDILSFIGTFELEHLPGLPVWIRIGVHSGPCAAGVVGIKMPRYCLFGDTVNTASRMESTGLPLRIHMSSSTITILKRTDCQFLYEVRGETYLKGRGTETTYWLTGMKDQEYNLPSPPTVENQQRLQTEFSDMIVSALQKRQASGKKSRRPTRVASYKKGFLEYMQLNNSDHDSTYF
Test: Autoradiography of sagittal brain sections after tail vein injection of ^131I-guanylin
Format: in vivo
Method: The GUCY2C receptor binds to heat stable enterotoxins, to guanylin and to uroguanylin. Guanylin is a 15 amino acid polypeptide (PGTCEICAYAACTGC, SEQ ID NO:1) that contains a tyrosine residue within the middle of its structure (Bryant et al., Life Sci. 86:760-765 (2010)). Guanylin (R&D Systems, Inc., Minneapolis, Minn.) was radiolabeled with ^131Iodine. 1 mCi of ^131I-guanylin was injected in the tail vein of adult mice and animals were sacrificed 10 minutes post-injection without perfusion.

Substance: ^131I-guanylin: Guanylin, a 15 amino acid polypeptide GUCY2C ligand (R&D Systems), radiolabeled with ^131Iodine (PGTCEICAYAACTGC; ends and bridges not checked; also: 131I radiolabel; UniProt Q02747 101-115, looked up)
- crossing of the blood brain barrier (adult mice, 1 mCi tail vein injection, 10 minutes post-injection): crossed the blood brain barrier
- localization of radioactive signal in sagittal brain sections (autoradiography) (adult mice, 1 mCi tail vein injection, sacrificed 10 minutes post-injection without perfusion): localized to the ventricles; also recorded: within the brain parenchyma the only “hot spot” was indeed localized to the GUCY2C expression domain; also recorded: strong emission in the ventricles and SN
- binding to GUCY2C expressing mDA neurons in the SN (adult mouse brain, after tail vein injection, signal specific to TH-expressing mDA neurons): bound to GUCY2C expressing mDA neurons in the SN of the adult brain; also recorded: specific binding to the GUCY2C receptor
